Data as given in patent publication US20220177587A1, “METHODS AND USES OF VARIANT CD80 FUSION PROTEINS AND RELATED CONSTRUCTS” (Alpine Immune Sciences, Inc., priority 2018, published 2022).
Positions count from the first letter of the chain named. Names and notes keep the numbering of the source.

B1: V22L/E35G/A71D/L72P: variant CD80 IgV-Fc, IgV SEQ ID NO:193 (protein)
chain: VIHVTKEVKEVATLSCGHNVSLEELAQTRIYWQKGKKMVLTMMSGDMNIWPEYKNRTIFDITNNLSIVILDPRPSDEGTYECVVLKYEKDAFKREHLAEVTLSVKAD
B2: E35D/I67L/A71D: variant CD80 IgV-Fc, IgV SEQ ID NO:195 (protein)
chain: B1 chain with L22V, G35D, I67L, P72L
B3: T13R/M42V/M47I/A71D: variant CD80 IgV-Fc, IgV SEQ ID NO:197 (protein)
chain: B1 chain with T13R, L22V, G35E, M42V, M47I, P72L
B4: E35D/A71D/L72V: variant CD80 IgV-Fc, IgV SEQ ID NO:200 (protein)
chain: B1 chain with L22V, G35D, P72V
B5: A26P/E35D/M43I/L85Q/E88D: variant CD80 IgV-Fc, IgV SEQ ID NO:202 (protein)
chain: B1 chain with L22V, A26P, G35D, M43I, D71A, P72L, L85Q, E88D
B6: Q27L/E35D/M47I/T57I/L70Q/E88D: variant CD80 IgV-Fc, IgV SEQ ID NO:204 (protein)
chain: B1 chain with L22V, Q27L, G35D, M47I, T57I, L70Q, D71A, P72L, E88D
B7: Q27H/E35G/A71D/L72P/T791: variant CD80 IgV-Fc, IgV SEQ ID NO:196 (protein)
chain: B1 chain with L22V, Q27H, T79I
B8: M47V/I69F/A71D/V831: variant CD80 IgV-Fc, IgV SEQ ID NO:205 (protein)
chain: B1 chain with L22V, G35E, M47V, I69F, P72L, V83I
B9: E35D/T57A/A71D/L85Q: variant CD80 IgV-Fc, IgV SEQ ID NO:206 (protein)
chain: B1 chain with L22V, G35D, T57A, P72L, L85Q
B10: E23D/M42V/M43I/I58V/L70R: variant CD80 IgV-Fc, IgV SEQ ID NO:209 (protein)
chain: B1 chain with L22V, E23D, G35E, M42V, M43I, I58V, L70R, D71A, P72L
B11: V68M/L70M/A71D/E95K: variant CD80 IgV-Fc, IgV SEQ ID NO:210 (protein)
chain: B1 chain with L22V, G35E, V68M, L70M, P72L, E95K
B12: N55I/T57I/I69F: variant CD80 IgV-Fc, IgV SEQ ID NO:211 (protein)
chain: B1 chain with L22V, G35E, N55I, T57I, I69F, D71A, P72L
B13: E35D/M43I/A71D: variant CD80 IgV-Fc, IgV SEQ ID NO:212 (protein)
chain: B1 chain with L22V, G35D, M43I, P72L
B14: T41S/T57I/L70R: variant CD80 IgV-Fc, IgV SEQ ID NO:213 (protein)
chain: B1 chain with L22V, G35E, T41S, T57I, L70R, D71A, P72L
B15: H18Y/A71D/L72P/E88V: variant CD80 IgV-Fc, IgV SEQ ID NO:214 (protein)
chain: B1 chain with H18Y, L22V, G35E, E88V
B16: V20I/A71D: variant CD80 IgV-Fc, IgV SEQ ID NO:215 (protein)
chain: B1 chain with V20I, L22V, G35E, P72L
B17: A12T/E24D/E35D/D46V/I61V/L72P/E95V: variant CD80 IgV-Fc, IgV SEQ ID NO:217 (protein)
chain: B1 chain with A12T, L22V, E24D, G35D, D46V, I61V, D71A, E95V
B18: V22L/E35D/M43L/A71G/D76H: variant CD80 IgV-Fc, IgV SEQ ID NO:218 (protein)
chain: B1 chain with G35D, M43L, D71G, P72L, D76H
B19: L70Q/A71D: variant CD80 IgV-Fc, IgV SEQ ID NO:220 (protein)
chain: B1 chain with L22V, G35E, L70Q, P72L
B20: D46E/A71D: variant CD80 IgV-Fc, IgV SEQ ID NO:222 (protein)
chain: B1 chain with L22V, G35E, D46E, P72L
B21: Y31H/E35D/T41S/V68L/K93R/R94W: variant CD80 IgV-Fc, IgV SEQ ID NO:223 (protein)
chain: B1 chain with L22V, Y31H, G35D, T41S, V68L, D71A, P72L, K93R, R94W
B22: I30T/L70R: variant CD80 IgV-Fc, IgV SEQ ID NO:154 (protein)
chain: B1 chain with L22V, I30T, G35E, L70R, D71A, P72L

Target: CD28 (Homo sapiens, UniProt P10747)
Experiment: Jurkat/IL2 reporter assay: blockade of CD28 costimulation (plate-bound anti-CD3/CD86-Fc)
Assay type: cell-based
Set-up: host or cells: Jurkat cells expressing an IL-2-luciferase reporter
Settings: Table E5; protein diluted to 40 nM before mixing with cells; 5 hours
Description: The day before the assay, the assay plate was prepared. […] The plate was incubated overnight at 4° C. to allow the antibody and CD86-Fc protein to adhere to the surface of the plate. The next day, the wells of the assay plate were washed twice with 150 μL PBS prior to the assay.
Jurkat effector cells expressing IL-2-luciferase reporter were counted and resuspended in assay buffer to a concentration of 2×10^6 cells/mL. 60 μL of the Jurkat cell suspension were then added to the wells containing the CD80-Fc fusion molecules or controls. The cells and CD80 proteins were incubated at room temperature for 15 minutes and then 100 μL of the cell/CD80 protein mixture were transferred/well of the prepared anti-CD3/CD86-Fc assay plate.
The assay plate was briefly spun down (10 seconds at 1200 RPM) and incubated at 37° C. for 5 hours. After the 5 hour incubation, the plate was removed and equilibrated to room temperature for 15 minutes. 100 μL of Bio-Glo (Promega) were added/well of the assay plate, which was then placed on an orbital shaker for 10 minutes. Luminescence was measured with a 1 second per well integration time using a BioTek Cytation 3 luminometer.

Average Relative Luminescence Units | Molecule
2334 Relative Luminescence Units | B1
1223 Relative Luminescence Units | B2
759 Relative Luminescence Units | B3
1152 Relative Luminescence Units | B4
4078 Relative Luminescence Units | B5
1180 Relative Luminescence Units | B6
2000 Relative Luminescence Units | B7
290 Relative Luminescence Units | B8
3213 Relative Luminescence Units | B9
4460 Relative Luminescence Units | B10
2067 Relative Luminescence Units | B11
1915 Relative Luminescence Units | B12
3019 Relative Luminescence Units | B13
3641 Relative Luminescence Units | B14
1354 Relative Luminescence Units | B15
2165 Relative Luminescence Units | B16
2408 Relative Luminescence Units | B17
2004 Relative Luminescence Units | B18
1036 Relative Luminescence Units | B19
490 Relative Luminescence Units | B20
3678 Relative Luminescence Units | B21
3236 Relative Luminescence Units | B22
